Experimental data as given in paper PMC12455930, “LEF-6 phosphorylation regulates the binding and trafficking of baculovirus late gene transcripts”.

T1: LEF6 1-90 (host not stated) (Autographa californica multiple …, UniProt S5G646 1-90)
T1 sequence: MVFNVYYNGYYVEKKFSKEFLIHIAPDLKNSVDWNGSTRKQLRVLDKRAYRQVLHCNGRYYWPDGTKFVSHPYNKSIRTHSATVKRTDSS

T2: LEF-6 (non-phosphorylated, E. coli) (Autographa californica multiple …, UniProt S5G646 1-173)
T2 sequence: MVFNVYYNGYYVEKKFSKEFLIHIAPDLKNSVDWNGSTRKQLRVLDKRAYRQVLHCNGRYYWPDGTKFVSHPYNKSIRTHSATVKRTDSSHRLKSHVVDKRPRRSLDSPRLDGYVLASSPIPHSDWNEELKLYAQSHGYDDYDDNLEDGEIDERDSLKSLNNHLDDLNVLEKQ

T3: LEF6 82-173 (Autographa californica multiple …, UniProt S5G646 82-173)
T3 sequence: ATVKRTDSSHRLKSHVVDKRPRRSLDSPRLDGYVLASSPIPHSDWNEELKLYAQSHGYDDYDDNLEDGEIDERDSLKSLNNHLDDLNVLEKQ

T4: LEF6 1-90 (High Five) (Autographa californica multiple …, UniProt S5G646 1-90)
T4 sequence: T1 sequence

T5: LEF6 1-90 (E. coli) (Autographa californica multiple …, UniProt S5G646 1-90)
T5 sequence: T1 sequence

B1: ie1 ssRNA (ssRNA)
RNA: UUAUAACCAUCCCACCCCGGAUGGAGC
B2: p10 ssRNA (ssRNA)
RNA: CGGUUUGCCCGCUCAAUUGACCGAUCU
B3: p6.9 ssRNA (ssRNA)
RNA: GACAGGUCGCCGAAGUUACAGAACACG
B4: unrelated ssRNA (ssRNA)
RNA: UUUUUUUUUUCUCUGCUCGACG

Experiments:
[1] = target: T1, LEF6 1-90 (host not stated); test: fluorescence anisotropy; Anisotropy: 20 mM Tris-HCl pH 7.5, 20 mM NaCl, 5 nM FAM-ssRNA, 28 C; EMSA: 10 mM Tris pH 7.5, 20 mM KCl, 1 mM MgCl2, 1 mM DTT, 20 uM RNA, 22 C, 1% agarose/TAE.; details: protein: recombinant, tags: His
[2] = target: T2, LEF-6 (non-phosphorylated, E. coli); test: as above; details: protein: recombinant, tags: His
LEF6 82-173 = target: T3, LEF6 82-173; test: EMSA; Anisotropy: 20 mM Tris-HCl pH 7.5, 20 mM NaCl, 5 nM FAM-ssRNA, 28 C; EMSA: 10 mM Tris pH 7.5, 20 mM KCl, 1 mM MgCl2, 1 mM DTT, 20 uM RNA, 22 C, 1% agarose/TAE.; details: protein: recombinant; tags: His; label: FAM (anisotropy); EMSA detected by ethidium bromide
LEF6 1-90 (High Five) = target: T4, LEF6 1-90 (High Five); test: as above; details: protein: recombinant; tags: His; label: FAM (anisotropy); EMSA detected by ethidium bromide
LEF6 1-90 (E. coli) = target: T5, LEF6 1-90 (E. coli); test: as above; details: protein: recombinant; tags: His; label: FAM (anisotropy); EMSA detected by ethidium bromide
[3] = label: FAM (anisotropy), EMSA detected by ethidium bromide

Row | Binder | binding result ([1]; label: FAM) | binding result ([2]; label: FAM) | binding result [1, 3] | binding result [2, 3] | binding result (LEF6 82-173) | binding result (LEF6 1-90 (High Five)) | binding result (LEF6 1-90 (E. coli))
1 | B1 | binds | binds | – | – | – | – | –
2 | B2 | – | – | binds | binds | – | – | –
3 | B3 | – | – | binds | binds | no binding | binds | binds
4 | B4 | binds | binds | – | – | – | – | –
